According to publication PMC11876699, “Elongator is a microtubule polymerase selective for polyglutamylated tubulin” (The EMBO Journal, 2025):
Each block holds one molecule with its values, some of them ahead of it.

B2: eGFP-Elp456 (Drosophila, wild type) (complex)
chain 1: MTSFRKRTVQKPIRGTRTSPHTAQVITSSGNPYLDVVIGGGLPMGSICLIEEDRFMTHAKVLAKYFLAEGVISKQEIFLGSLDDIPAEMLRRLPRPLTDQESMEQSEVQALGDAGAENGLRIAWRYNDLPLVNSEHATAKIGHHFNLMEQMDSMMLYNVKTTLWDDSPKHLDIVIDEEFSKSSSPTTPSLEQQPVEDAPPIPGTETAPQEKMPAQEEENSANNNNNNNNNSSSVTSSTKTGSQDSPLQVFHNPRYKGLLNDIQQLLRNESFVAGTKNNLCRVCLTSLGSPLWYDEHFGEDLIKFLTLLMASVRNCNSVCLITMPMHLIAKYDASLVPKIRQLVDYAIELESFAGSERETHPAFKEYSGLLHLHKMSAINTLAVHMPETPDLAFKLRRKKFIIEKFHLPPELQESSAKPDNCISGLLSNSNATASLDF
chain 2: MLSNLVVTKQKVVLVIDELNRERIAPKFIGSLLHEQGQGADTIKALPTGVSLKHVATFEALIDKYANNNTGSTTDSNSTGFNVILPTLADLLCYQTPAFIFGFLNRLRRSDNVRRVFLWASPQHLQDPHADYILAGCEYLAELVLRLESDKLLSLISRKPGGGVSNRRYSCEVSKTQFKVTPLDGGLPAGASPKQPSPEAEQTTEPASSTFKIELDEDEVLARNALTLPYERTSEPSEGNIIYTPDADDDFDEEDPDEDLCI
chain 3: MATSVLLACGLNEQKLPGFVHISEESNVDASFLISCVLGQRLRISNAGTLLVCLQHHYQHYFNAGMRLGYNTNIFQGKTLGVIDVLSDMAGEGLASKWLTNTEGQTLTDQLVEDIRAQVERNYASRNSYTVLIDNLSILFNLGASKLQVQQFCQDLAALGKEREKLTVITKLSNSDIYQLTDNNVAKLGQVRIQVLRLKSGVFREVDGKLLIERVLDEGNYACEETRKEVLYKVNDRNVKVFAPGEIGVKV
notes: Elp4, Drosophila melanogaster; Elp5, Drosophila melanogaster; ORF; Elp6, Drosophila melanogaster; it is put on Elp4 here only by the name eGFP-Elp456 (surmised); also called eGFP-Elp456 (WT); source: E. coli BL21 (DE3) Rosetta2, purified (Glutathione Sepharose, TEV elution, Superdex 200); not shown: GST, N-terminal, cleaved; copies: 2 + 2 + 2

Experiments:
[1] = biological target: eGFP-Elp456 solo (Drosophila, three point mutations in each subunit) (Drosophila) (UniProt Q9VMQ7); test: MST; Monolith X, 25 °C; eGFP-Elp456 (WT or mutated) constant at 50 nM, tubulin or Elp123 in twofold dilution series; binding buffer with 0.05% Tween-20
[2] = biological target: B2; test: as above
[3] = biological target: microtubules assembled from porcine brain tubulin (pig, UniProt Q2XVP4 1-451, rhodamine, AMCA, HiLyte 647 or biotin on part of the tubulin, by experiment); test: TIRF microscopy of decorated microtubules; GMPCPP-stabilized microtubules settled on passivated glass, proteins added one after the other in BRB80 imaging buffer; 100 nM 488-SNAP-Elongator or 488-SNAP-Elp123, 500 nM mScarlet-Elp456, 15 µM 647-GTP-Tubulin; conditions: both partners purified
[4] = biological target: T1, Elp123 subcomplex (Drosophila Elp1, Elp2 and His6-PC-SNAP-Elp3) (Drosophila melanogaster, UniProt Q9VGK7 1-1252; Q7K4B3 1-794; Q9VQZ6 1-552, Alexa Fluor 488 on the SNAP tag); test: MST; Monolith X, 25 °C; eGFP-Elp456 (WT or mutated) constant at 50 nM, tubulin or Elp123 in twofold dilution series; binding buffer with 0.05% Tween-20; conditions: both partners purified
T1 construct: Elp1, Drosophila melanogaster, codon-optimised synthetic gene, untagged; Elp2, Drosophila melanogaster, codon-optimised synthetic gene, untagged; Elp3, Drosophila melanogaster, codon-optimised synthetic gene; Elutes at about 600 kDa, a dimer of Elp1-Elp2-Elp3 protomers; source: Sf9, baculovirus (biGBac pBig1a), purified (Protein C resin, heparin, Superose 6); not shown: His6, N-terminal, kept; …
T1 sequence (Q9VGK7 whole entry, chain 1 of 3): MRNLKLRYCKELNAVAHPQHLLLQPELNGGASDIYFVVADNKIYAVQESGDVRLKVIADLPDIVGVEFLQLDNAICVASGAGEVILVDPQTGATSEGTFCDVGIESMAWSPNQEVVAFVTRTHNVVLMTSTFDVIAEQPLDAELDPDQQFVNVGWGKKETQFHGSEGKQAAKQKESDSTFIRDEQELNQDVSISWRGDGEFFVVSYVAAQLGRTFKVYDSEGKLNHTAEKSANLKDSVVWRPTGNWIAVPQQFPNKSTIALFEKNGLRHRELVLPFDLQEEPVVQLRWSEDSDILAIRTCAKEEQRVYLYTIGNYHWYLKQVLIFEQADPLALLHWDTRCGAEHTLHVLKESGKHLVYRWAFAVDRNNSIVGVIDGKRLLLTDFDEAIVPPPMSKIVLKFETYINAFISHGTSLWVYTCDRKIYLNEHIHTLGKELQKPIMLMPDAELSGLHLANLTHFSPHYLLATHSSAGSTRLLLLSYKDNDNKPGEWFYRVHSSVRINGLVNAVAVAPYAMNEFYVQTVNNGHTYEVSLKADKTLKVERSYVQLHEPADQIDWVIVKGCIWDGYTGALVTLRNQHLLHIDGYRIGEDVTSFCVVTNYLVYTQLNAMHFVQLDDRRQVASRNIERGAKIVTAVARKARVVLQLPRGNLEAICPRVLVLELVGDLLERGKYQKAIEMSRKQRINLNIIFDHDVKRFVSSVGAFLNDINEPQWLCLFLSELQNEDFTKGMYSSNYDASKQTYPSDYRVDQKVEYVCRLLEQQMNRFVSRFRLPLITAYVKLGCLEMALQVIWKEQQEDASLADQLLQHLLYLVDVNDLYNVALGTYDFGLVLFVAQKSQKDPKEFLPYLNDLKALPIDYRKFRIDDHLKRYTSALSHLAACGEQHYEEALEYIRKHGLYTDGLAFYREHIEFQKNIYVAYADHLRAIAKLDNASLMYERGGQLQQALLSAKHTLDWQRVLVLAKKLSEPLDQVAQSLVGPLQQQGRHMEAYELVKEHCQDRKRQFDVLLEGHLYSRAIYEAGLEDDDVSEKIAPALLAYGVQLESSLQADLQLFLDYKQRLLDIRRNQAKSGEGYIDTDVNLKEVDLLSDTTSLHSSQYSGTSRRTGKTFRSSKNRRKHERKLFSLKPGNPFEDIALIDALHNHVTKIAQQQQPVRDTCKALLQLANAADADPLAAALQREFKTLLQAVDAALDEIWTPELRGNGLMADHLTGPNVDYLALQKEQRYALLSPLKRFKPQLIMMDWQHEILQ
T1 sequence (Q7K4B3 whole entry, chain 2 of 3): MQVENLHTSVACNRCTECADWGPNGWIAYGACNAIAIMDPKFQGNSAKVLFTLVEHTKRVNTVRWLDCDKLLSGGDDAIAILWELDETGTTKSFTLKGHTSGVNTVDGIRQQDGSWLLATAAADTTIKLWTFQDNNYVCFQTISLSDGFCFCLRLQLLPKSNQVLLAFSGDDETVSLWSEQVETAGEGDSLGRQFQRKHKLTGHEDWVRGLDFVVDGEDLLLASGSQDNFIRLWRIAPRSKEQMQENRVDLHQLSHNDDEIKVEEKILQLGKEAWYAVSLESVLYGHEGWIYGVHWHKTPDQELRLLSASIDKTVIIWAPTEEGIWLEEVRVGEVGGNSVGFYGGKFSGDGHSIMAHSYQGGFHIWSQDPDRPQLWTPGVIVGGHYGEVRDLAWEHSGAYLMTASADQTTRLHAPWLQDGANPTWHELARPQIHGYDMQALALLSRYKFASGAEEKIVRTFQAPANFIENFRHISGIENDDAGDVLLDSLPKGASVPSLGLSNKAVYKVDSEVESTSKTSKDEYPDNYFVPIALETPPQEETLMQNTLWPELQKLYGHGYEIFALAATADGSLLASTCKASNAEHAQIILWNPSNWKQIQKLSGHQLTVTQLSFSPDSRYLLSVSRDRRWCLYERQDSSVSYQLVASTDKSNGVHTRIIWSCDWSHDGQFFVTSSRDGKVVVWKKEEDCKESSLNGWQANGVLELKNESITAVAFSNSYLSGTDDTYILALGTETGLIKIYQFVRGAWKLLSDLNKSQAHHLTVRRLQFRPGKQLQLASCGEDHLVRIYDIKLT
T1 sequence (Q9VQZ6 whole entry, chain 3 of 3): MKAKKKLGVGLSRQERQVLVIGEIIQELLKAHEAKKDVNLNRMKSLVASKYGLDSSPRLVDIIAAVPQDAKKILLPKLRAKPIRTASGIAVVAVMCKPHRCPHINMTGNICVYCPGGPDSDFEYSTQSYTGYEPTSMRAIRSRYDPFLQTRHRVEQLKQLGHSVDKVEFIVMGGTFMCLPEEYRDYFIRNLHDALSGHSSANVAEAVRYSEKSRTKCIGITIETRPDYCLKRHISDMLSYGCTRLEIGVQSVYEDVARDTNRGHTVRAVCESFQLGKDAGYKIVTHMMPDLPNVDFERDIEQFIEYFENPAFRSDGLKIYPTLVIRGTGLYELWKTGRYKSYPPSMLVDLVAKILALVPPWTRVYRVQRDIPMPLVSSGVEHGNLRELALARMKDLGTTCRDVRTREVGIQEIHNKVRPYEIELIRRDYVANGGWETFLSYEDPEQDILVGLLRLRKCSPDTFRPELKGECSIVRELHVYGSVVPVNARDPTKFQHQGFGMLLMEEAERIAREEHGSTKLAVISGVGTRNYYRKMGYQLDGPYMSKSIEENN

[5] = biological target: B2; test: MST; as a11, with 100 µM tRNA (and 2.5 mM MgATP by the legend) in the buffer of both partners; conditions: both partners purified

Molecule: Elp123 subcomplex (Drosophila Elp1, Elp2 and His6-PC-SNAP-Elp3) (from UniProt Q9VGK7 1-1252; Q7K4B3 1-794; Q9VQZ6 1-552)
Kd [1]: 67.1 nM

Molecule: pig brain tubulin (free GTP-αβ-tubulin heterodimers) (from UniProt Q2XVP4 1-451; P02554 1-445) (complex)
Kd [2]: 1800 nM

Molecule: tubulin purified from TTLL1/7-double KO mouse brain (lacking polyglutamylation) (from UniProt P68369 1-451; Q7TMM9 1-445) (complex)
Kd [2]: > 25000 nM

Molecule: B2
Kd [4]: 15.5 ± 3.7 nM

B3: recombinant Drosophila α1β1-tubulin heterodimers (His6-PC-tubulin α1 84B with co-purified tubulin β1 56D) (complex)
chain 1: MRECISIHVGQAGVQIGNACWELYCLEHGIQPDGQMPSDKTVGGGDDSFNTFFSETGAGKHVPRAVFVDLEPTVVDEVRTGTYRQLFHPEQLITGKEDAANNYARGHYTIGKEIVDLVLDRIRKLADQCTGLQGFLIFHSFGGGTGSGFTSLLMERLSVDYGKKSKLEFAIYPAPQVSTAVVEPYNSILTTHTTLEHSDCAFMVDNEAIYDICRRNLDIERPTYTNLNRLIGQIVSSITASLRFDGALNVDLTEFQTNLVPYPRIHFPLVTYAPVISAEKAYHEQLSVAEITNACFEPANQMVKCDPRHGKYMACCMLYRGDVVPKDVNAAIATIKTKRTIQFVDWCPTGFKVGINYQPPTVVPGGDLAKVQRAVCMLSNTTAIAEAWARLDHKFDLMYAKRAFVHWYVGEGMEEGEFSEAREDLAALEKDYEEVGMDSGDGEGEGAEEY
chain 2: MREIVHIQAGQCGNQIGAKFWEIISDEHGIDATGAYHGDSDLQLERINVYYNEASGGKYVPRAVLVDLEPGTMDSVRSGPFGQIFRPDNFVFGQSGAGNNWAKGHYTEGAELVDSVLDVVRKEAESCDCLQGFQLTHSLGGGTGSGMGTLLISKIREEYPDRIMNTYSVVPSPKVSDTVVEPYNATLSVHQLVENTDETYCIDNEALYDICFRTLKLTTPTYGDLNHLVSLTMSGVTTCLRFPGQLNADLRKLAVNMVPFPRLHFFMPGFAPLTSRGSQQYRALTVPELTQQMFDAKNMMAACDPRHGRYLTVAAIFRGRMSMKEVDEQMLNIQNKNSSYFVEWIPNNVKTAVCDIPPRGLKMSATFIGNSTAIQELFKRISEQFTAMFRRKAFLHWYTGEGMDEMEFTEAESNMNDLVSEYQQYQEATADEDAEFEEEQEAEVDEN
modifications: the paper calls this tubulin highly modified (polyglutamylated, acetylated and partially detyrosinated)
notes: tubulin α1 84B, Drosophila melanogaster, codon-optimised gene; tubulin β1 56D, Drosophila melanogaster, endogenous, co-purified with the tagged α chain; also called recombinant Drosophila tubulin; PC-α-Tubulin; source: D.mel-2 (S2) cells stably transfected (pMT Puro), purified (Protein C resin, Superdex 200); also in S2 cell lysate; not shown: His6, N-terminal, kept; PC, N-terminal, kept
Kd [1]: 1600 nM
Kd ([2]; both partners purified): 1200 nM
Kd [5]: 2900 nM

The next lines start with the values.

Kd [2]: > 22000 nM
Molecule: de-tyrosinated HeLa S3 tubulin (treated with carboxypeptidase A) (from UniProt P68363 1-451; P07437 1-444) (complex)

Kd [2]: 21200 nM
Molecule: tubulin purified from HeLa S3 cells (from UniProt P68363 1-451; P07437 1-444) (complex)

fold less fluorescence intensity on microtubules without Elp123 than with it [3]: 9.3 fold
B1: mScarlet-Elp456 (Drosophila) (complex)
chain 1: MTSFRKRTVQKPIRGTRTSPHTAQVITSSGNPYLDVVIGGGLPMGSICLIEEDRFMTHAKVLAKYFLAEGVISKQEIFLGSLDDIPAEMLRRLPRPLTDQESMEQSEVQALGDAGAENGLRIAWRYNDLPLVNSEHATAKIGHHFNLMEQMDSMMLYNVKTTLWDDSPKHLDIVIDEEFSKSSSPTTPSLEQQPVEDAPPIPGTETAPQEKMPAQEEENSANNNNNNNNNSSSVTSSTKTGSQDSPLQVFHNPRYKGLLNDIQQLLRNESFVAGTKNNLCRVCLTSLGSPLWYDEHFGEDLIKFLTLLMASVRNCNSVCLITMPMHLIAKYDASLVPKIRQLVDYAIELESFAGSERETHPAFKEYSGLLHLHKMSAINTLAVHMPETPDLAFKLRRKKFIIEKFHLPPELQESSAKPDNCISGLLSNSNATASLDF
chain 2: MLSNLVVTKQKVVLVIDELNRERIAPKFIGSLLHEQGQGADTIKALPTGVSLKHVATFEALIDKYANNNTGSTTDSNSTGFNVILPTLADLLCYQTPAFIFGFLNRLRRSDNVRRVFLWASPQHLQDPHADYILAGCEYLAELVLRLESDKLLSLISRKPGGGVSNRRYSCEVSKTQFKVTPLDGGLPAGASPKQPSPEAEQTTEPASSTFKIELDEDEVLARNALTLPYERTSEPSEGNIIYTPDADDDFDEEDPDEDLCI
chain 3: MATSVLLACGLNEQKLPGFVHISEESNVDASFLISCVLGQRLRISNAGTLLVCLQHHYQHYFNAGMRLGYNTNIFQGKTLGVIDVLSDMAGEGLASKWLTNTEGQTLTDQLVEDIRAQVERNYASRNSYTVLIDNLSILFNLGASKLQVQQFCQDLAALGKEREKLTVITKLSNSDIYQLTDNNVAKLGQVRIQVLRLKSGVFREVDGKLLIERVLDEGNYACEETRKEVLYKVNDRNVKVFAPGEIGVKV
notes: Elp4, Drosophila melanogaster; Elp5, Drosophila melanogaster; ORF; Elp6, Drosophila melanogaster; put on Elp4 here by the name only (surmised); source: E. coli BL21 (DE3) Rosetta2, purified (Glutathione Sepharose, TEV elution, Superdex 200); not shown: GST, N-terminal, cleaved; copies: 2 + 2 + 2
